This note sets out measurements from article PMC12494564, “CLIC5A binds to and stabilizes the open and active conformation of ezrin” (The Journal of Biological Chemistry, 2025).

The Kd is a measure of binding affinity in units of concentration.

This assay concerns the target GST-His6x-CLIC5A (human, UniProt Q9NZA1-2 1-251, fluorescent label from the Monolith His-Tag Labeling Kit RED-tris-nitriloacetic acid). Nature of the assay: MST; 100 nM fluorescently labeled (RED-tris-NTA) GST-His6x-CLIC5A or GST-His6x, unlabeled ezrin_(482-586) from 412 μM to 12.6 nM in the labeling buffer; Monolith NT.115, ambient temperature, 40% MST power, 30% LED power. As to conditions: both partners purified.

Sequence of GST-His6x-CLIC5A (Q9NZA1 other isoform, or with tags, fused parts or gaps): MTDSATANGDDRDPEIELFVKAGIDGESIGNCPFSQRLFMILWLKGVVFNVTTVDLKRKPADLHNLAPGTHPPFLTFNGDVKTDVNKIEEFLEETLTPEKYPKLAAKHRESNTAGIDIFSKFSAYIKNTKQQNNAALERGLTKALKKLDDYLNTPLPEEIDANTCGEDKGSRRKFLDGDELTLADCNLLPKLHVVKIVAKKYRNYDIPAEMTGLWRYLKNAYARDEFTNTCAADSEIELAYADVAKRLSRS

B1: ezrin_(482-586) (H549N/T567E) (domain or fragment, human, UniProt P15311 482-586, looked up)
chain: SYHVQESLQDEGAEPTGYSAELSSEGIRDDRNEEKRITEAEKNERVQRQLLTLSSELSQARDENKRTNNDIIHNENMRQGRDKYKELRQIRQGNTKQRIDEFEAL
notes: ezrin, human; Expression plasmid created by ATUM; not shown: PagP, N-terminal, cleaved
B1 gave a Kd of 29 µM.
